# According to patent publication US20240083986A1 (published 2024):
# B1: H4H17015P (antibody, human IgG4, V domains shown)
# VH: QVQLQESGPGLVKPSQTLSLTCTVSGGSISSADHYWSWIRQQPGKGLEWIGYISYRGTTYYNPTLESRVSISVDTFKNQFSLMLHSVTVADTAVYYCAKVLQGLVRFRDYGFDVWGQGTTVTVSS
# VL: DIQLTQSPPFLSASVGDRVTITCWASQDISSYLAWYQQNPGKSPKLLIYDAFTLHTGVPSRFSGSGSGTEFTLTISSLQPEDFATFYCQHLYSFPFTFGPGTKVDIK
# B2: H4H17067P2 (antibody, human IgG4, V domains shown)
# VH: EVQLVQSGAEVKKPGESLKISCSGSGYRFTNYWIAWVRQMPGKGLEWMGLIHPDDSDIRYSPSFQGQVTFSVDKSINTAYLQWSSLKASDTAMYYCTRQDGILWSHNAWFDPWGQGTLVTVSS
# VL: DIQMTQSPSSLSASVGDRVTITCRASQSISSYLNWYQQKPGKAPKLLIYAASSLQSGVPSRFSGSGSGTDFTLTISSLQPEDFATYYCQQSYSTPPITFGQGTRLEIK
# B3: H4H17045P2 (antibody, human IgG4, V domains shown)
# VH: EVQLVESGGGLVQPGVSLRLSCVASGFTFSNYDITWIRQIPGKGLEWVSRISGSGGSTYFADSVKGRFIISRDNSKNTVYMQMNSLRAEDSAVYYCARRDSVLFSMNSWLDPWGQGTLVTVSS
# VL: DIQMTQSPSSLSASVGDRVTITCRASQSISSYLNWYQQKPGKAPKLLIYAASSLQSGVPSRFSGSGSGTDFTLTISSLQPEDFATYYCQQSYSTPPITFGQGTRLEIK
# B4: H4H16991P (antibody, human IgG4, V domains shown)
# VH: QVQLVQSGAEVRKPGASVKVSCKASGYTFTGYYLHWVRQAPGQGLEWMGLINPNTGGTNFAQKFQGRVTMTRDSSISAAYMELSRLRSDDTAVYYCARQHWNRYFDNWGQGTLVTVSS
# VL: DIQMTQSPSTLSASVGDRVTITCRASQSVGNWLAWYQQKPGKAPKLLIQEASSIESGVPSRFSGSGSGTEFTLIVSSLQPDDFATYYCQQYNSYSWTFGHGTKVEIK
# B5: H4H16950P (antibody, human IgG4, V domains shown)
# VH: QVQLVQSGAEVKKPGASVKVSCKTSGYTFTNYGITWVRQAPGQGLEWMGWISAYNGNTNYAQNVQGRVTMTTDTSTSTAYMEVRSLRSDDTAVYYCARRSSMLHFQHWGQGTLVTVSS
# VL: DIVMTQSPDSLAVSLGERATINCKSSQHVLYDSSNENYLAWFQQKPGQPPKLLIYWASTRESGVPDRFSGSGSGTDFTLTISSLQAEDVAVYYCQQYSSAPYTFGQGTKLEIK
# B6: H4H16960P (antibody, human IgG4, V domains shown)
# VH: QLQLQESGPGLVRPSETLSLTCTVSGGSISSSNYWWGWIRQPPGKGLEWIGSIYYSGITYYNPSLKSRVTISADTSKDQFSLKLRSVTAADTAVYYCAKLEWLRLDFWGQGTTVTVSS
# VL: DIQMTQSPSSVSASVGDRVTITCRASQGISSWLVWYQQKPGKVPKLLIYAASSLQSGVPLRFSGSGSGTDFTLTISSLQPEDFATYYCQQAKSFPLTFGQGTRLEIK
# Molecular target: T1, Alder (Aln g 1, MyBiosource, Cat #MBS1041484) (Alder, UniProt P38948 2-160, limits assumed)
# T1 construct: Bought reagent
# T1 sequence (looked up): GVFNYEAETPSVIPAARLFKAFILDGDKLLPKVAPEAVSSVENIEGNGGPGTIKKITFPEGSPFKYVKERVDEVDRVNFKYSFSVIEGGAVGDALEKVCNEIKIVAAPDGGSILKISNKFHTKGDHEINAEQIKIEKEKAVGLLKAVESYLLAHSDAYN
# Assay: SPR Biacore, 25C;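 note: binding of related allergens to purified monoclonal anti-Bet v 1 antibodies by surface plasmon resonance in HEPES-buffered saline pH 7.4, kinetics fitted to a 1:1 model with mass transport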
row,Binder,binding result
1,B1,no binding (tested: 100 nM)
2,B2,no binding (tested: 100 nM)
3,B3,no binding (tested: 100 nM)
4,B4,no binding (tested: 100 nM)

# Molecular target: T2, Apple (Mal d 1, MyBiosource, Cat #MBS1224919) (Apple, UniProt P43211 2-159, limits assumed)
# T2 construct: Bought reagent
# T2 sequence (looked up): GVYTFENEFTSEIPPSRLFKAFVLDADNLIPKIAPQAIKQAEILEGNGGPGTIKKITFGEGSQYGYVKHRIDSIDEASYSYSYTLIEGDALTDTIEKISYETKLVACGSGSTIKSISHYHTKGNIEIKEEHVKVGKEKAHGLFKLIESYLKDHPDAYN
# Assay: SPR Biacore, 25C;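 note: binding of related allergens to purified monoclonal anti-Bet v 1 antibodies by surface plasmon resonance in HEPES-buffered saline pH 7.4, kinetics fitted to a 1:1 model with mass transport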
row,Binder,binding result
1,B5,no binding (tested: 100 nM)
2,B1,no binding (tested: 100 nM)
3,B6,no binding (tested: 100 nM)
4,B2,no binding (tested: 100 nM)
5,B3,no binding (tested: 100 nM)
6,B4,no binding (tested: 100 nM)

# Molecular target: T3, Celery (Api g 1, MyBiosource, Cat #MBS1171376) (Celery, UniProt P49372 1-154, limits assumed)
# T3 construct: Bought reagent
# T3 sequence (looked up): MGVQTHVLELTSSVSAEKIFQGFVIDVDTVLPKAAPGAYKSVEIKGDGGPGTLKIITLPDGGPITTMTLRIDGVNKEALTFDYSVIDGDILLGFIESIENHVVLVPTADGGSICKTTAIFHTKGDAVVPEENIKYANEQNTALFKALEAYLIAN
# Assay: SPR Biacore, 25C;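 note: binding of related allergens to purified monoclonal anti-Bet v 1 antibodies by surface plasmon resonance in HEPES-buffered saline pH 7.4, kinetics fitted to a 1:1 model with mass transport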
row,Binder,binding result
1,B5,no binding (tested: 100 nM)
2,B1,no binding (tested: 100 nM)
3,B6,no binding (tested: 100 nM)
4,B2,no binding (tested: 100 nM)
5,B3,no binding (tested: 100 nM)
6,B4,no binding (tested: 100 nM)

# Molecular target: T4, European Hornbeam (Car b 1 isoform 1A & 1B, MyBiosource, Cat #MBS1200018) (European Hornbeam, UniProt P38949 2-160)
# T4 construct: Bought reagent
# T4 sequence (looked up): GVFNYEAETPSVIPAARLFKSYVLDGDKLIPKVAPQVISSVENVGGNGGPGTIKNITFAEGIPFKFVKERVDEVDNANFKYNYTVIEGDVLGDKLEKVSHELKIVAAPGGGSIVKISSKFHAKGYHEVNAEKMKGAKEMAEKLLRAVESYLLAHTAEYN
# Assay: SPR Biacore, 25C;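 note: binding of related allergens to purified monoclonal anti-Bet v 1 antibodies by surface plasmon resonance in HEPES-buffered saline pH 7.4, kinetics fitted to a 1:1 model with mass transport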
row,Binder,binding result
1,B5,no binding (tested: 100 nM)
2,B1,no binding (tested: 100 nM)
3,B6,no binding (tested: 100 nM)
4,B2,no binding (tested: 100 nM)
5,B3,no binding (tested: 100 nM)
6,B4,no binding (tested: 100 nM)

# Molecular target: T5, European Hornbeam (Car b 1 isoform 2, MyBiosource, Cat #MBS1043940) (European Hornbeam, UniProt P38950 2-160, limits assumed)
# T5 construct: Bought reagent
# T5 sequence (looked up): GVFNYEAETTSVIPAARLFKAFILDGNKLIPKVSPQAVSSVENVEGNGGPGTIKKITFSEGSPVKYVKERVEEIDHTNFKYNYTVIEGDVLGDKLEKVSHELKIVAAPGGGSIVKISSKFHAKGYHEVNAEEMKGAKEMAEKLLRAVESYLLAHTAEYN
# Assay: SPR Biacore, 25C
row,Binder,binding result
1,B5,no binding (tested: 100 nM)
2,B1,no binding (tested: 100 nM)
3,B6,no binding (tested: 100 nM)
4,B2,no binding (tested: 100 nM)
5,B3,no binding (tested: 100 nM)

# Molecular target: T6, natural Bet v 1 (Indoor, Cat #NA-BV1-1) (Betula verrucosa (European white birch, …, UniProt P15494 2-160))
# T6 construct: Bought natural protein purified from birch pollen; also called nBet v 1
# T6 sequence: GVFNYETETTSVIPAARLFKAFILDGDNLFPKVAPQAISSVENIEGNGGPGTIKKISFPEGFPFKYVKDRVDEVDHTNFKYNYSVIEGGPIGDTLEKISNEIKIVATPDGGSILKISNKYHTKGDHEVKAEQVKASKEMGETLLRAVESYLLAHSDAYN
# Assay: SPR Biacore, mAb captured on anti-hFc, 25C;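 note: rate constants from sensorgrams fitted to a 1:1 model with mass transport limitation, KD and t½ derived from kinetic constants, run in HBS-ET buffer at pH 7.4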
Binder,100 nM natural Bet v 1 Bound (RU),Kd [nM],koff [s⁻¹],kon [M⁻¹ s⁻¹],t½ [min]
B5,58,5.23,0.000503,96100,23
B1,68,1.34,0.000246,184000,47
B6,57,1.64,0.00069,422000,17
B2,58,3.56,0.000402,113000,29
B3,69,1.22,0.000149,122000,78
B4,57,1.06,0.000312,295000,37

# Molecular target: T6, natural Bet v 1 (Indoor, Cat #NA-BV1-1)
# Assay: SPR Biacore, mAb captured on anti-hFc, 37C;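 note: purified anti-Bet v 1 monoclonal antibodies, HBS-ET running buffer pH 7.4, rate constants from 1:1 model fit with mass transport limitation, KD and t½ calculated from kinetic constants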
Binder,100 nM natural Bet v 1 Bound (RU),Kd [nM],koff [s⁻¹],kon [M⁻¹ s⁻¹],t½ [min]
B5,76,8.57,0.00121,141000,10
B1,84,2.7,0.000792,293000,15
B6,65,2.54,0.00168,662000,6.8
B2,80,5.48,0.00147,268000,7.9
B3,90,1.86,0.000441,237000,26
B4,66,2.16,0.00108,500000,11
